Holding throughout (conditions): chain copies: 8 (stated)
In series [1] the target is MS-(B1-I105Y)8 (Mycobacterium smegmatis, UniProt A0QR29 SEQ:1-184, I105Y). Nature of the series: current range; Phi29 unzipping, +180 mV.
Procedure: (§1) The runs were conducted at room temperature at an applied potential of +180 mV. Current levels observed when the DNA is in the enzyme bound state were indexed and the current level, its duration and variance were recorded.
(§2) This pre-incubation mix was added to 900 μL of buffer in the cis compartment of the electrophysiology chamber to initiate capture of the polymerase-DNA complexes in the MspA nanopore (to give final concentrations of DNA=0.5 nM, Enzyme=0.1 μM). Experiments were carried out at a constant potential of +180 mV. Current levels observed when the DNA is in the enzyme bound state were indexed and the current level, its duration and variance were recorded.
In series [2] the target is MS-(B1-I89Y-D90S)8 (Mycobacterium smegmatis, UniProt A0QR29 SEQ:1-184, I89Y,N90S). Nature of the series: current range; Phi29 unzipping, +180 mV.
Procedure: as §1, §2
The target of series [3] is MS-(B1-S103G)8 (Mycobacterium smegmatis, UniProt A0QR29 SEQ:1-184, S103G). Nature of the series: current range; Phi29 unzipping, +180 mV.
Procedure: as §1, §2
Series [4] concerns the target MS-(B1-N86T)8 (Mycobacterium smegmatis, UniProt A0QR29 SEQ:1-184, N86T). Nature of the series: current range; Phi29 unzipping, +180 mV.
Procedure: as §1, §2
Series [5] concerns the target MS-(B1-I105L)8 (Mycobacterium smegmatis, UniProt A0QR29 SEQ:1-184, I105L). Description: current range; Phi29 unzipping, +180 mV.
Procedure: as §1, §2
The target in series [6] is MS-(B1-D90Q)8 (Mycobacterium smegmatis, UniProt A0QR29 SEQ:1-184, N90Q). Description: current range; Phi29 unzipping, +180 mV.
Procedure: as §1, §2
Series [7] has as its target MS-(B1-L88S)8 (Mycobacterium smegmatis, UniProt A0QR29 SEQ:1-184, L88S). Description: mean S.D. of current levels (B1 baseline 3.26).
Procedure: as §2
In series [8] the target is MS-(B1-L88Q)8 (Mycobacterium smegmatis, UniProt A0QR29 SEQ:1-184, L88Q). Nature of the series: mean S.D. of current levels (B1 baseline 3.26).
Procedure: as §2
Series [9] concerns the target MS-(B1-L88N)8 (Mycobacterium smegmatis, UniProt A0QR29 SEQ:1-184, L88N). Nature of the series: mean S.D. of current levels (B1 baseline 3.26).
Procedure: as §2

B1: FIG. 12 DNA substrate (dsDNA)
DNA 1: TTTTTTTTTTTTTTTTTTTTTCCCCCCCCCCCCCCTATTCTGTTTATGTTTCTTGTTTGTTAGCCCCCTTTGATAAGACAAATACAAAGAACAAACAATCGGCCCTTTAGTGGAGCGAGTGCGAGAGGCGAGCGGTCAA
DNA 2: GTATCTCCATCGCTGTTGACCGCTCGCCTCTCGCACTCGCTCCACTAAAGGGCCGATTGTTTGTTCTTTGTATTTGTCTTATCAAAGGGGGCTAACAAACAAGAAACATAAACAGAATAG
DNA 3: CAGCGATGGAGATAC
modifications: iSp9 and 3' Cholesteryl-TEG on SEQ 23
On to B1, for which the activity in [1] amounted to 45 pA; in [2] it was 67 pA; in series [3], 54 pA; in series [4], 58 pA; in series [5], 42 pA; in series [6], 70 pA. The activity in [7] was 3.12; in series [8] it was 3.3; in series [9], 3.22.

For the origin of these results see patent publication US20140186823, “MUTANT PORES” (OXFORD NANOPORE TECHNOLOGIES LIMITED, published 2014).
